For assay [1], the target named is p65 subunit of NF-κB expressed from pCMV-p65 (Homo sapiens (Human)) (UniProt Q04206). Put plainly: cell-based or functional assay.
For assay [2], the target named is T1, p65 subunit of NF-κB expressed from pCMV-p65 (Homo sapiens (Human), UniProt Q04206 1-551, limits assumed). The assay can be described thus: cell-based or functional assay.
Assay [3] has as its target T1, p65 subunit of NF-κB expressed from …. The assay can be described thus: co-immunoprecipitation from transfected BV-2 cells.

The values that follow come from US20160091504A1 (UNIVERSITE LAVAL, published 2016).

p65 subunit of NF-κB expressed from pCMV-p65 (Homo sapiens (Human)), sequence (Q04206 whole entry S180P): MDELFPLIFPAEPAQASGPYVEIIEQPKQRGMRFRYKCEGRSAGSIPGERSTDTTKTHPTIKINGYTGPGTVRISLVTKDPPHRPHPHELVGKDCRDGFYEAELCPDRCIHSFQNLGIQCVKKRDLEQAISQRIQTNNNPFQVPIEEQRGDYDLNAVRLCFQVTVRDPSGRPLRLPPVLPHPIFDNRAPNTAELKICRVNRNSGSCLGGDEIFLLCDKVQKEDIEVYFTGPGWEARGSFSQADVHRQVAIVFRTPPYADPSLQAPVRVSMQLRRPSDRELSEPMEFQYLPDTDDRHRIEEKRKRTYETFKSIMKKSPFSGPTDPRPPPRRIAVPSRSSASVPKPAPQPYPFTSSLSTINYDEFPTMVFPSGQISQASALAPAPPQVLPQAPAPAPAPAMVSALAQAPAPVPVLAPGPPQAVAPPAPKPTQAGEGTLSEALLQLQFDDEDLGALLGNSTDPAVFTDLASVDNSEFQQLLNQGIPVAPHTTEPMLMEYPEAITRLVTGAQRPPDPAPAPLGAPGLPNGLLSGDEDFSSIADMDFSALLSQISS
T1 sequence (Q04206 whole entry S180P): as above

In assay [1], “endogenous mouse TDP-43 (from UniProt Q921F2 1-414)” returned a decrease in NF-κB activation (4κB^wt-luc) with TDP-43 siRNA versus scrambled siRNA, 5 ng pCMV-p65 of 3 fold; a decrease in NF-κB activation (4κB^wt-luc) with TDP-43 siRNA versus scrambled siRNA, 50 ng pCMV-p65 of 2 fold; a decrease in NF-κB activation (4κB^wt-luc) with TDP-43 siRNA versus scrambled siRNA, 10 and 20 ng pCMV-p65 of 2.5 fold.

B1: TDP-43^ΔNR1-30 (31-81 and 98-176 AAs), N-terminal and RRM-1 deletion mutant with the NLS signal attached (other)
chain: MSEYIRVTEDENDEPIEIPSEDDGTVLLSTKRKMDETDASSAVKVKLPNSKQSQDEPLRSRKVFVGRCTEDMTEDELREFFSQYGDVMDVFIPKPFRAFAFVTFADDQIAQSLCGEDLIIKGISVHISNAEPKHNSNRQLERSGRFGGNPGGFGNQGGFGNSRGGGAGLGNNQGSNMGGGMNFGAFSINPAMMAAAQAALQSSWGMMGMLASQQNQSGPSGNNQNQGNMQREPNQAFGSGNNSYSGSNSGAAIGWGSASNAGSGSGFNGGFGSSMDSKSSGWGM
notes: The printed ranges in brackets are read as the deleted residues (31-81 and 98-176); not shown: HA (hemagglutinin) tag at the extreme C-terminus
As for B1, the “level of NF-κB activation detected by the 4κB^wt-luc reporter assay” value in assay [2] stood at 6 fold lower. Also, in assay [3], the binding result is “no binding”.

B2: TDP-43^ΔN (1-105AAs), HA-tagged deletion mutant (other, not shown: small tags and cut ends)
chain: LIVLGLPWKTTEQDLKEYFSTFGEVLMVQVKKDLKTGHSKGFGFVRFTEYETQVKVMSQRHMIDGRWCDCKLPNSKQSQDEPLRSRKVFVGRCTEDMTEDELREFFSQYGDVMDVFIPKPFRAFAFVTFADDQIAQSLCGEDLIIKGISVHISNAEPKHNSNRQLERSGRFGGNPGGFGNQGGFGNSRGGGAGLGNNQGSNMGGGMNFGAFSINPAMMAAAQAALQSSWGMMGMLASQQNQSGPSGNNQNQGNMQREPNQAFGSGNNSYSGSNSGAAIGWGSASNAGSGSGFNGGFGSSMDSKSSGWGM
On to B2, for which the “NF-κB gene activation (4κB^wt-luc reporter), compared to full length TDP-43^wt” value in assay [2] is 2 fold.
